# Test results taken from patent publication US20100136664A1, “CARBOXIN […] FOR FLAMMULINA VELUTIPES” (MYCOMAGIC BIOTECHNOLOGY CO., LTD., priority 2008, published 2010).
# B1: mutant Cbr DNA: Flammulina velutipes succinate dehydrogenase iron-sulfur protein gene with point mutation His238 to Leu (CAC→CTC), SEQ ID NO: 1 (nucleic acid)
# DNA: ATGCAGTCCGTCGCCCGTCGTTTCTCTGCCGCCGCCGTGCGCCGTAGCTTTTCTACCACTTCTGTCGCGTTCCAGGCTACACCGCTCGAGAAGCCCGTGCTGAACAAGGAATTCAAGATTTACCGCTGGAATCCTGATGAGCCGGAGAAGAAACCGACGCTACAGAGCTACATAATCGACCTGAACCAGACAGGGCCAATGATTCTGGATGCTCTCATCAAGATTAAAAACGAAATCGACCCTACGCTTACCTTCAGACGAAGTTGTCGCGAGGGCATTTGCGGATCTTGTGCGAGAAAAATCGACGGGCAGAACACGTTGGCCTGTCTCTGCAGGATTGATAGGAATGCTGGGAAGGATTCGAAGATCTATCCCTTACCACACAGTGAGTGTCTCATCTGAGCTCTGCGTATCTGAGTGCTAACTTAGATTCCAGTGTACATCGTCAAGGACCTCGTACCGGATCTCACCTACTTCTACAAGCAGTACAAGTCTATCCAACCATACCTTCAGAACGACAACCCACCTGCGTCAGGTCTGTTCATTATTTTGCACCCTCCCCTTTGCTCGGCTTACCGAATCGCTTCTAGGTGAATTCCTCCAAACGCAAGATGACCGCAAGAAGCTCGACGGACTCTACGAGTGTATCCTTTGCGCGTGTTGTTCGACGTCTTGCCCTTCGTATTGGTGGAACCAAGACGAATACCTTGGACCCGCTACTTTGATGCAAGCATATCGCTGGATCGCCGACTCGAGAGTACGTTCTGCTCGTCGTATCATGTTTTATCTCATACTGATATACTCTTAGGACTCTTATGCCGCAGAACGCAAGGAAAAGCTCCAAAACGAGATGAGCATGTACCGATGCCTCACTATCTTCAACTGCTCGCGGACATGCCCCAAGGGTCTCAACCCCGCTGCCGCCATCGCGAAAATCAAGCTTGAGCTTGCGGCCGAGTAA
# modifications: Flammulina velutipes
# Tested on: Flammulina velutipes
# Experiment: Test for the function of Cbr sequence: growth of transformed strains on PDA plate medium containing carboxin
# Format: cell-based
# Conditions: ten transformed Flammulina velutipes strains (electroporation, pMush-A-mFvCbr) cultured in PDA plate medium containing 2 mg/ml carboxin for one week
# Experimental: The vector for expressing mutant Cbr sequence is pMush-A vector containing GPD promoter (pGPD) and hygromycin resistance (hyg) marker. The mutant Cbr sequence preserved in mFvCbrAMV vector (FIG. 1B) and pMush-A vector were sliced with BamH I and Spe I, respectively. The mutant Cbr sequence (mFvCbr) was ligated to the corresponding sites in pMush-A vector using T4 DNA ligase. The constructed vector is called pMush-A-mFvCbr (FIG. 2B).
# The mycelia of Flammulina velutipes were cultured in PDB medium at 25° C. for 1-2 weeks. The resulting mycelia were disrupted by a homogenizator and then treated with lysing enzyme solution containing lysing enzyme (Sigma, St. Louis, Mo., U.S.A.), mannitol and potassium phosphate buffer. The resulting mycelial fragments were dissolved in 100 μl electroporation buffer solution as the competent cells used in the electroporation. The well-prepared competent cells were added to the mutant Cbr DNA solution obtained from Example 2 and then placed on ice for 10 minutes. An electroporation was conducted for the resulting solution using Electro Cell Manipulator ECM 630 Electroporation System (BTX, San Diego, Calif., U.S.A.) to obtain transformed mycelia. […] Ten transformed strains were selected and cultured in PDA plate medium containing 2 mg/ml carboxin for one week. […]
molecule,measurement,value
B1,growth of transformed strains in PDA plate medium containing carboxin (carboxin resistance),Four strains grew
